Results reported in article PMC5605233, “Crystal structure of the N-terminal domain of human Timeless and its interaction with Tipin” (Nucleic Acids Research, 2017).

What was measured:
[1] = target: human Tipin, N-terminal 10xHis tag, co-expressed with Timeless (human) (UniProt Q9BVW5); test: native MS + SEC-MALS; purified Timeless-Tipin complex; nanoESI-MS in 0.20 M ammonium acetate pH 7.0, 5-10 μM; SEC-MALLS
[2] = target: the molecule itself; test: SEC-MALS; Superdex 200 Increase 10/300, 25°C, 1-2 mg/ml (100 μl injection), 25 mM Hepes 7.2, 150 mM KCl, 50 mM Arginine, 50 mM Glutamate

Chain of human Tipin, N-terminal 10xHis tag, co-expressed with Timeless (human) (Q9BVW5 whole entry): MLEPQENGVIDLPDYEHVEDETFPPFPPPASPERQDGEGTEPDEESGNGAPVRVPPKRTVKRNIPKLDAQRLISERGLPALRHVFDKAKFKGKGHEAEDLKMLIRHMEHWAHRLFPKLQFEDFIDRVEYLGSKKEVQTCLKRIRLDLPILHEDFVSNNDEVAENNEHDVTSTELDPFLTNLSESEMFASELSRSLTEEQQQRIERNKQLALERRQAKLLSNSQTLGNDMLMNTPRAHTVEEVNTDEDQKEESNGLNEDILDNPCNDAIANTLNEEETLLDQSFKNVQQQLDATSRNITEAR

## human Timeless, full-length, N-terminal twin-strep tag, co-expressed with Tipin (from UniProt Q9UNS1 1-1208) (natural protein)
[1]
  stoichiometry N (Timeless:Tipin): 1

B1: TimN(Δ239-330): Timeless 1-463 with residues 239-330 replaced by the linker GSTGST (domain or fragment, human)
chain: MDLHMMNCELLATCSALGYLEGDTYHKEPDCLESVKDLIRYLRHEDETRDVRQQLGAAQILQSDLLPILTQHHQDKPLFDAVIRLMVNLTQPALLCFGNLPKEPSFRHHFLQVLTYLQAYKEAFASEKAFGVLSETLYELLQLGWEERQEEDNLLIERILLLVRNILHVPADLDQEKKIDDDASAHDQLLWAIHLSGLDDLLLFLASSSAEEQWSLHVLEIVSLMFRDQNPEQLAGVGGSTGSTQRRSALNVRLFLRDFCSEFLENCYNRLMGSVKDHLLREKAQQHDETYYMWALAFFMAFNRAASFRPGLVSETLSVRTFHFIEQNLTNYYEMMLTDRKEAASWARRMHLALKAYQELLATVNEMDISPDEAVRE
notes: human Timeless, residues 1-238; 6-residue linker in place of residues 239-330; human Timeless, residues 331-463; Dimer in solution and in the crystal; the authors think the dimer is likely an artifact of construct design; also called Timeless(1-463_(Δ239-330)); source: E. coli Rosetta2(DE3), purified (Ni-NTA, HiTrap Q, SEC)
[2]
  stoichiometry N: 2
